Assay results: patent publication US20060252692A1, “Inhibitors for use in hemostasis” (ZymoGenetics, Inc., priority 2002, published 2006)

Columns and labels:
[1] = system: RAW 264.7 (ATCC No. CRL-2278); test: Binding of zsig37 to RAW 264.7 monocyte/macrophage line; conditions: mouse monocyte/macrophage line
From the text: This could potentially result in zsig37 involvement in monocyte phagocytosis, microbial killing, and cellular cytotoxicity. Following the two days in culture, there are macrophages present in the culture and zsig37 may be binding preferentially to this subset of cells. Zsig37 also bound to a mouse monocyte/macrophage line, RAW 264.7 (ATCC No. CRL-2278), indicating macrophage specificity.

[2] = system: norepinepherin contracted aortic rings; test: Vasodilatation of norepinepherin contracted aortic rings; set-up: species or system Sprague Dawley rats; conditions: 323, 162, and 81 ng/ml
Description: The effect of zsig37 on vasodilatation of aortic rings was measured according to the procedures of (Dainty et al., J. Pharmacol. 100:767 (1990), and Rhee et al., Neurotox. 16:179 (1995)). Briefly, aortic rings 4 mm in length were taken from 4 month old Sprague Dawley rats and placed in modified Krebs solution (118.5 mM NaCl, 4.6 mM KCl, 1.2 mM MgSO4.7H2O, 1.2 mM KH2PO4, 2.5 mM CaCl2.2H2O, 24.8 mM NaHCO3 and 10 mM glucose). The rings were then attached to an isometric force transducer (Radnoti Inc.; Monrovia, Calif.) and the data recorded with a Ponemah physiology platform (Gould Instrument systems, Inc.; Valley View, Ohio) and placed in a 10 ml tissue bath oxygenated (95% O2, 5% CO2) modified Krebs solution. The tissues were adjusted to one gram resting tension and allowed to stabilize for one hour before testing.
The rings were tested by 5 μl additions of […] norepinepherin (Sigma Chemical Co.; St. Louis, Mo.) to a final concentration of about 1×10^−9 M and Carbachol, a muscarinic acetylcholine agonist (Sigma Chemical Co.) at 2×10^−7 M final, to test the integrity of the rings. After each test, the rings were washed three times with fresh buffer, five minutes between washes and allowed to rest one hour. […] Zsig37 was then added to one, two, or three of the four baths, without flushing, and tension on the rings was recorded and compared to the control rings. […]

platelets in whole blood = test: Whole blood platelet activation (Lumi-Aggregometer); format: cell-based, human
Description: Blood was drawn from healthy volunteers into tubes containing sodium citrate, maintained at room temperature, and used within four hours of drawing. Whole blood was analyzed for platelet activation using a Chrono-Log 560A Whole Blood Lumi-Aggregometer (Chrono-Log Corp.; Haverton, Pa.) according to manufacturer's instructions. For each test point, 500 μl of blood were added to a reaction tube containing a stir bar and 500 μl of isotonic saline containing zsig37 at concentrations from 0 to 20 μg/ml. The mixture was incubated for four minutes followed by platelet activation initiated by the addition of 5 μl of 1 mg/ml cross-linked collagen (Chrono-Log Corp.) to the blood/zsig37 mixture. Inhibition of activation by ADP (final concentration 10 μM), and thrombin (final concentration lU/ml) were tested in a similar way.

[3] = system: iliac artery crush injury/stenosis; test: Rabbit iliac artery crush injury/stenosis model; format: in vivo, New Zealand White rabbits
Description: The effect of zsig37 on blood flow dynamics following vascular injury in a rabbit iliac artery crush injury/stenosis model was also evaluated. Young adult male New Zealand White rabbits were anesthetized as described above. Via an abdominal incision, the aorto-iliac bifurcation was exposed and each iliac freed of surrounding tissues and the main branches ligated. Each iliac was fitted with an ultrasound flow probe to monitor blood flow through the vessel. Based on blood flow data, one iliac was selected to be used for the injury and the other was catheterized for delivery of the test sample. Rabbits were divided into dose groups of 6 animals/group. Test sample doses containing zsig37 increased in half-log increments from 3-1000 μg/kg over the selected infusion period. The test samples infusion was initiated followed by creation of a critical stenosis that reduced blood flow through the vessel by approximately 50%. After creation of the stenosis and a period of blood flow stabilization, the vessel was injured by crushing the vessel between the jaws of a smooth needle holder. The infusion was continued post-injury for a set period of time, 10-20 minutes. Blood flow through the injured vessel was monitored for 60 minutes post-injury. The animals were euthanized at he conclusion of the study period. […]

template bleeding time = system: template bleeding time; set-up: species or system Macaca fascicularis; conditions: cynomolgus monkey, in vivo
From the text: In order to evaluate one aspect of the safety of zsig37 and its effect on template bleeding time, a pre-clinical model in Macaca fascicularis was used. Time to cessation of bleeding from standardized incisions on the animal's forearm, a procedure previously described by Wu, et al., Blood, 2002, 99:3623-3628, was employed to assess the effect of zsig37 on bleeding.
Methods. Five female and twelve male, Macaca fascicularis weighing 2.3 to 4.6 kg were used as test subjects on this project. The animals were immobilized with ketamine hydrochloride (Phoenix Scientific) administered intramuscularly at approximately 10 mg/kg. Each animal was examined, and the animal determined to be acceptable for the study. The right forearm, abdomen, ventral neck and inguinal area were shaved free of hair. The animal was transported to the surgical suite (University of Washington Regional Primate Research Center), positioned inside a heated air circulation system and placed onto isoflurane (Abbott Laboratories) inhalation anesthesia delivered through positive pressure ventilation via an endotracheal tube. […] The time to cessation of bleeding was determined and recorded for each animal. Bleeding times were determined for each animal prior to any treatment, after low molecular weight heparin (Lovenox™, Rhone Polenc, Inc.) treatment and after zsig37 treatment.

B1: zsig37: adipocyte complement related protein homolog, polypeptide of SEQ ID NO:2, inhibits collagen-mediated platelet activation and the complement pathway (protein, listed as Homo sapiens)
chain: MGSRGQGLLLAYCLLLAFASGLVLSRVPHVQGEQQEWEGTEELPSPPDHAERAEEQHEKYRPSQDQGLPASRCLRCCDPGTSMYPATAVPQINITILKGEKGDRGDRGLQGKYGKTGSAGARGHTGPKGQKGSMGAPGERCKSHYAAFSVGRKKPMHSNHYYQTVIFDTEFVNLYDHFNMFTGKFYCYVPGLYFFSLNVHTWNQKETYLHIMKNEEEVVILFAQVGDRSIMQSQSLMLELREQDQVWVRLYKGERENAIFSEELDTYITFSGYLVKHATEP
For B1, the “binding to RAW 264.7” value [1] was “bound”, the “dose response of vasodilatation” value [2] was “dose response could not be determined” and the rings vasodilated ([2]; two of seven controls dilated, Fisher exact P 0.045) was 10 of the 12. The “effect on platelet activation stimulated by ADP” value (platelets in whole blood; ADP final concentration 10 μM) was “no effect”, the “inhibition of collagen-mediated platelet activation” value (platelets in whole blood; cross-linked collagen, zsig37 0 to 20 μg/ml) was “dose dependent relationship between 5 and 20 μg/ml” and the “effect on platelet activation stimulated by thrombin” value (platelets in whole blood; thrombin) was “no effect”. For the same molecule, the patency time ([3]; 3-1000 μg/kg infusion, 60 minute period) was “tendency for zsig37 to promote increased patency time with increased dose up to 300 μg/kg”, the thrombolytic activity ([3]; study with zsig37 hexamer, flow starting from occlusion) was “possesses thrombolytic activity” and the “template bleeding time vs control (1.0 mg/kg BSA)” value (template bleeding time) was “not statistically different”.
